Laboratory results reported in US5780289.

Molecular target: E. acervulina merozoite antigen (whole merozoites coated on the plate, or sonicated merozoites)

Substance | 3H-thymidine incorporation in Dcpm [Dcpm]
peripheral blood leucocytes of chickens immunised with purified Eam20 (cells without a defined receptor) | 922
peripheral blood leucocytes of control chickens (cells without a defined receptor) | 14
peripheral blood leucocytes of chickens immunised with purified Eam200 (cells without a defined receptor) | 692
peripheral blood leucocytes of chickens immunised with purified Eam100 (cells without a defined receptor) | 1190
peripheral blood leucocytes of chickens immunised with purified Eam45 (cells without a defined receptor) | 716
